# Experimental data: patent US20250213713A1, “Antibody-Drug Conjugates Targeting uPARAP Comprising Exatecan Derivatives” (ADCENDO APS, priority 2022, published 2025)
# Key:
# JIMT-1 cells = assay: Inhibition of in vitro proliferation of tumor cells (CTG), JIMT-1; type: cell-based; details: read-out: JIMT-1 IC50; Table 8, 6 days of culture
# Protocol: (§1) To test the inhibitory activity of the pharmaceutical compounds on the in vitro proliferation of NCI-N87, JIMT-1 and MBA-MB-231 tumor cells. The cells were treated with the compounds at different concentrations in vitro, and after 6 days of culture, the proliferation of cells was detected using the CTG (CellTiter-Glo® Luminescent Cell Viability Assay, Promega, Cat. No. G7558) reagent, and the in vitro activity of the compounds was evaluated according to the IC50 value. […]
# (§2) There were 8 concentrations in total for the small molecule compounds: 300 nM, 100 nM, 30 nM, 10 nM, 3 nM, 1 nM, 0.3 nM, and 0.1 nM. • 5. Sample adding: the prepared samples to be detected at different concentrations were added to the culture plate, and two duplicate wells were set for each sample. […] Plate reading: the 96-well cell culture plate was taken out, placed in a microplate reader, and measured for the chemiluminescence using the microplate reader.
# as §1, with “with” for “with the”, “using” for “using the”, “reagents,” for “reagent,”, “value. • 1.” for “value.”
# NCI-N87 cells = assay: Inhibition of in vitro proliferation of tumor cells (CTG), NCI-N87; type: cell-based; details: read-out: NCI-N87 IC50; Table 8, 6 days of culture
# Protocol: as §1, §2
# as §1, with “with” for “with the”, “using” for “using the”, “reagents,” for “reagent,”, “value. • 1.” for “value.”
# [1] = target: T1, soluble full-length uPARAP (UniProt Q9UBG0 31-1414, limits assumed); assay: SPR (Biacore 2000), antibody captured on anti-human Fc CM5 chip, soluble full-length uPARAP as analyte, 25 C, Langmuir 1:1 global fit
# T1 construct: also called CD280
# T1 sequence (looked up): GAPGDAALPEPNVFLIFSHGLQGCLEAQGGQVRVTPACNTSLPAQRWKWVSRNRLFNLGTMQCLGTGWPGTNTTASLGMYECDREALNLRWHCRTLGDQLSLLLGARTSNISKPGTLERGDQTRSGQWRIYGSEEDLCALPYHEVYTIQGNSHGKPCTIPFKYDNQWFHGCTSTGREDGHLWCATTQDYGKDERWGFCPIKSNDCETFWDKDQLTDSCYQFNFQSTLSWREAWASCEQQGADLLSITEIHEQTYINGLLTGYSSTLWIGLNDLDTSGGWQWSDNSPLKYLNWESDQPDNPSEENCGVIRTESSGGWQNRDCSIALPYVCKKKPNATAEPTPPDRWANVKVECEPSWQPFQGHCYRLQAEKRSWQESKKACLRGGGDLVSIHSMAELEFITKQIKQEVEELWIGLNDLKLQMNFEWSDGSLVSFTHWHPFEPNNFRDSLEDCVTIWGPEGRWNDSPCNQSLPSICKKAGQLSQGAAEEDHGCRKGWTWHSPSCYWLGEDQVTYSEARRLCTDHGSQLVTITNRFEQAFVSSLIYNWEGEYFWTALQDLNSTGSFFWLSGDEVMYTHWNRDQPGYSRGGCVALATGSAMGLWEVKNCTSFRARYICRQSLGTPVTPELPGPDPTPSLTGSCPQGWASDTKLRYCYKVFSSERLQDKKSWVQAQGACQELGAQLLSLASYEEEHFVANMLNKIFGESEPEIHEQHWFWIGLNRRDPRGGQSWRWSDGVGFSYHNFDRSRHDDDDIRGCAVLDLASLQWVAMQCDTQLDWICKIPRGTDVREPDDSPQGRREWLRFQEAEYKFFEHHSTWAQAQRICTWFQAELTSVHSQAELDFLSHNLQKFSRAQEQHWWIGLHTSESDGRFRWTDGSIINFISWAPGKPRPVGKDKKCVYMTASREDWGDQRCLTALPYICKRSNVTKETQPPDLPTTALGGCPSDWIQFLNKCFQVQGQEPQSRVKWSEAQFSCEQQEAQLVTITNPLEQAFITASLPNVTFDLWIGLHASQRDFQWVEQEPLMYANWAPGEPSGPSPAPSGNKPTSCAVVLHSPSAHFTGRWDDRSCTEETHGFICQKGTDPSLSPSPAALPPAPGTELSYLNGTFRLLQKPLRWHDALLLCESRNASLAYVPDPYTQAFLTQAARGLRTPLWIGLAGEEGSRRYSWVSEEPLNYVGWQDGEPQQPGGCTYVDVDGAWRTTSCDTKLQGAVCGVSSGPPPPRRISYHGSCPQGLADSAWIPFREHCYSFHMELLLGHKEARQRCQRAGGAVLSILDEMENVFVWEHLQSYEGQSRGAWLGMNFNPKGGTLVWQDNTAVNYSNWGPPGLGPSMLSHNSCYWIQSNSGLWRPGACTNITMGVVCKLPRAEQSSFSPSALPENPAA
# Protocol: (§3) SPR analyses were performed for determination of the affinity of the obtained antibodies towards uPARAP. These analyses were performed using a Biacore 2000 instrument (Biaffin GmbH, Kassel, Germany) using a CM5 sensor chip with an anti-human Fc capture surface for antibody binding. The analysis temperature was set at 25° C. Binding of antibody onto this surface was followed by passing soluble full-length uPARAP over the chip, and the resulting association and dissociation rates were derived from the resulting binding curves. For kinetic interaction analyses, a flowrate of 30 μL/min was used and the analysis buffer consisted of 10 mM HEPES pH 7.4, 150 mM NaCl, 3 mM EDTA, 0.05% Tween 20.
# (§4) LC4HC3 and LC0HC0 were analyzed by SPR as described in Materials and Methods above. In particular, the binding kinetics of LC4HC3 were compared with those of LC0HC0 (Table 5).
# [2] = target: T1, soluble full-length uPARAP; assay: SPR (Biacore 2000), ratio of KD values against LC0HC0
# Protocol: as §3, §4
molecule,measurement,setting,value
CC[C@@]1(O)C(=O)OCc2c1cc1n(c2=O)Cc2c-1nc1cc(F)c(C)c3c1c2[C@@H](NC(=O)CCS)CC3 [P-III-2],IC50,JIMT-1 cells,108 nM
same,IC50,NCI-N87 cells,108 nM
CC[C@@]1(O)C(=O)OCc2c1cc1n(c2=O)Cc2c-1nc1cc(F)c(C)c3c1c2[C@@H](NC(=O)CC(C)(C)O)CC3 [P-III-21],IC50,JIMT-1 cells,2.87 nM
same,IC50,NCI-N87 cells,4.75 nM
"980.2 LC0HC0 (chimeric antibody: variable domains of murine 9b7 fused to human IgG1 kappa constant regions) (antibody, V domains shown, Complete IgG1 kappa, expressed in CHO cells; captured by anti-human Fc in the SPR assay; also called parental antibody) VH: QVHLVQSGPELKKPGETVKISCKASGYIFIDYGMHWVKQAPGKGLKWMGSINTKSGVSTYAAEFKGRFAFSLETSASTAYLQINNLKNEDTATYFCARPPYYSQYGSYWGQGTLVTVSA VL: DIVMTQSQKFMSTSVGDRVSVTCKASQNVDTYVVWYQQKPGQSPKPLIYSASSRFSGVPDRFTGTGSGTDFTLTINNVQSEDLAEYFCQQYHNSPLTFGGGTKLEIKR",Kd,[1],0.86 nM
same,koff,[1],5.33e-05 s⁻¹
same,kon,[1],62300 M⁻¹ s⁻¹
"980.2 LC4HC3 (humanized 9b7 antibody) (antibody, human IgG1, kappa, V domains shown, Complete IgG1 kappa, expressed in CHO cells; captured by anti-human Fc in the SPR assay) VH: QVQLVQSGAEVKKPGASVKVSCKASGYIFIDYGMHWVRQAPGQRLEWMGSINTKSGVSTYAAEFKGRVTIYSDTSASTAYMELSSLRSEDTAVYFCARPPYYSQYGSYWGQGTLVTVSS VL: EIVMTQSPDSLAVSLGERATINCKASQNVDTYVVWYQQKPGQPPQPLIYSASSRFSGVPDRFSGSGSGTDFTLTISSLQAEDVAIYYCQQYHNSPLTFGGGTKVEIKR",Kd,[1],0.5 nM
same,koff,[1],4.04e-05 s⁻¹
same,kon,[1],81300 M⁻¹ s⁻¹
same,fold higher ligand affinity than LC0HC0,[2],~1.7 fold
